# Patent US20120276102A1 (Pfizer, published 2012)
# Residue numbers refer to the chain shown, from its start.
# T1: human gamma (γ) common chain expressed on CHO cells (human, UniProt P31785 23-369)
# T1 construct: whole, on cells; Control protein; also called human IL-2R-γ common subunit; human γ-common
# T1 sequence (looked up): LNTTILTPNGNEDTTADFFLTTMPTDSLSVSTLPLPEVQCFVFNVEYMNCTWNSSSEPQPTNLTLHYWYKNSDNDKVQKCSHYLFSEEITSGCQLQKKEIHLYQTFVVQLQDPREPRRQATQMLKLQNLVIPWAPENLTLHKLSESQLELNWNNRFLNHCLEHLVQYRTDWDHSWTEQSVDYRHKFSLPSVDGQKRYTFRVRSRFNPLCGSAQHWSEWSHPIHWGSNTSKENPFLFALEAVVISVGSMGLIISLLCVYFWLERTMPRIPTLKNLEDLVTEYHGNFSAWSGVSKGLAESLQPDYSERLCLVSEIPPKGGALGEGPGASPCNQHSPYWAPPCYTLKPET
# B1: AbM (antibody, IgG1, V domains shown)
# VH: QVQLQESGPGLVKPSETLSLTCAVSGYSISSGYYWGWIRQPPGKGLEWIGSISHTGNTYYNPPLKSRVTISVDTSKNQFSLKLSSVTAADTAVYYCARFFGFGRPEYWGQGTLVTVSS
# VL: SSELTQDPAVSVALGQTVRITCQGDSLRTYYASWYQQKPGQAPVLVIYGKHKRPSGIPDRFSGSSSGNTASLTITGAQAEDEADYYCVTRNRYGNPHVLFGGGTQLTVL
# notes: As for AbA: IgG1/lambda, CDR3 graft, residue limits derived; also called VH6/VL13
# B2: AbN (antibody, IgG1, V domains shown)
# VH: B1 VH
# VL: B1 VL with V88I, T89A, N91S, R92N, Y93K
# notes: As for AbA: IgG1/lambda, CDR3 graft, residue limits derived; also called VH6/VL24
# B3: scFv L13 (scFv)
# scFv: QVQLQESGPGLVKTSETLSLTCAVSGYSISSGYYWGWIRQPPGKGLEWIGSISHTGNTYYNPPLKSRVTISVDTSKNQFSLKLSSVTAADTAVYYCARGGGISRPEYWGKGTLVTVSSGGGGSGGGGSGGGGSALSSELTQDPPVSVALGQTVTLTCQGDSLRTYYASWYQQKSGQAPILLLYGKHKRPSGIPDRFSGSTSGDTASLTITGAQAEDEADYYCVTRNRYGNPHVLFGGGTQLTVL
# B4: scFv L18 (scFv)
# scFv: B3 scFv with N226S, R227V, Y228K
# B5: scFv L24 (scFv)
# scFv: B3 scFv with V223I, T224A, N226S, R227N, Y228K
# B6: scFv L20 (scFv)
# scFv: B3 scFv with T224S, N226S, R227A, Y228K
# B7: scFv L17 (scFv)
# scFv: B3 scFv with V223S, N226S, Y228K
# B8: scFv L21 (scFv)
# scFv: B3 scFv with V223A, N226A, R227V, Y228R
# B9: scFv L25 (scFv)
# scFv: B3 scFv with V223T, N226S, R227N, Y228K
# B10: scFv L16 (scFv)
# scFv: B3 scFv with N226S, R227A, Y228K
# B11: scFv L15 (scFv)
# scFv: B3 scFv with V223S, N226A, R227I, Y228H
# B12: scFv L14 (scFv)
# scFv: B3 scFv with V223M, T224A, N226S, Y228K
# B13: scFv L19 (scFv)
# scFv: B3 scFv with T224A, N226A, R227V, Y228R
# Molecular target: T2, rat IL-21R expressed on cells (rat)
# T2 construct: whole, on cells
# Test: cell ELISA, CHO cells
# Experimental: (§1) A subset of binding proteins was tested for binding to rat, cynomolgus monkey, human IL-21R, or human IL-2R-γ common subunit expressed transiently on the surfaces of CHO-PA-Dukx cells. Cells were transfected 48 hr prior to the assay. On the day of the assay, cells were washed gently 5× in PBS containing 0.9 mM CaCl₂ and 0.45 mM MgCl₂ (PBS/CaMg) on an automated plate washer (Titertek, Huntsville, Ala.), and blocked for 1 hr at RT in PBS/CaMg/5% nonfat dry milk. Conditioned media from transiently expressed anti-IL-21R IgGs were serially diluted in blocking buffer and added to the cells in the blocked plates for 1 hr at RT. Cells were washed 5× with PBS/CaMg and then incubated with horseradish peroxidase-conjugated anti-human IgG for 1 hr at RT. Cells were then washed 10× in PBS/CaMg and all of the wash buffer was removed. Cells were incubated with 100 μl TMB until the color reaction reached saturation, stopped with 100 μl of 0.18 M H₂SO₄, and read at A450 on a Perkin Elmer ENVISION™ plate reader.
row,A450 (13 nM Ab) [A450],Binder
1,0.78,B1
2,0.702,B2

# Molecular target: T1, human gamma (γ) common chain expressed …
# Test: cell ELISA, CHO cells
# Experimental: as §1
row,A450 (13 nM Ab) [A450],Binder
1,0.136,B2

# Molecular target: T3, human IL-21R expressed on cells (human, UniProt Q9HBE5 20-538)
# T3 construct: also called human IL-21R-BaF3; human IL-21R-TF1
# T3 sequence (Q9HBE5 20-538 limits assumed): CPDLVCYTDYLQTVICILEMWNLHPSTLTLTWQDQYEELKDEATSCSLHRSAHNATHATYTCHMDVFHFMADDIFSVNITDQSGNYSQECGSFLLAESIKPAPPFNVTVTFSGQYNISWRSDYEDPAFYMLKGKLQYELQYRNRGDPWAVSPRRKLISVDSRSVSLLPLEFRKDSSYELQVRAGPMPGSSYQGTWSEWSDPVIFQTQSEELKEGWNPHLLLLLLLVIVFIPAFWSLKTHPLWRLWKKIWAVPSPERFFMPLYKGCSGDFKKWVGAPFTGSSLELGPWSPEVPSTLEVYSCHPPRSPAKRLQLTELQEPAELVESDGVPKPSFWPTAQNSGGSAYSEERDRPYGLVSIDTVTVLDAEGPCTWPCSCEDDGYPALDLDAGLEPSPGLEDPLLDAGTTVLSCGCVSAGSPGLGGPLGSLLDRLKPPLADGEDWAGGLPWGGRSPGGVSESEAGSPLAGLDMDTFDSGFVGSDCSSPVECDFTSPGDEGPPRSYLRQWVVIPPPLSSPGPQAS
# Test: cell ELISA, CHO cells
# Experimental: as §1
row,A450 (13 nM Ab) [A450],Binder
1,1.2,B1
2,1.21,B2

# Molecular target: T4, cynomolgus monkey IL-21R expressed on cells (cynomolgus monkey, UniProt G7Q0S8 41-559)
# T4 construct: whole, on cells
# Test: cell ELISA, CHO cells
# Experimental: as §1
row,A450 (13 nM Ab) [A450],Binder
1,1.45,B1
2,1.5,B2

# Molecular target: T5, murine IL-21R expressed on cells (murine, UniProt Q9JHX3 20-529)
# Test: cell-based or functional assay
row,Murine IL-21R-BaF3 Proliferation IC50 [nM],Binder
1,0.125,B1
2,0.435,B2

# Molecular target: T3, human IL-21R expressed on cells
# Test: cell-based or functional assay
Human IL-21R-BaF3 Proliferation IC50 [nM],Human IL-21R-TF1 Proliferation IC50 [nM],Binder
1.08,4.22,B1
0.5,1.59,B2

# Molecular target: T5, murine IL-21R expressed on cells
# Test: cell-based or functional assay
# Remark: another data set of the same source
row,"IC50, Murine IL-21R-BaF3 Neutralization Assay [nM]",Binder
1,1.25,B3
2,8.34,B4
3,3.73,B5
4,15.4,B6
5,2.66,B7
6,162,B8
7,15.6,B9
8,4.71,B10
9,53.5,B11
10,6.49,B12
11,13.6,B13

# Molecular target: T3, human IL-21R expressed on cells
# Test: cell-based or functional assay
# Remark: another data set of the same source
"IC50, Human IL-21R-BaF3 Neutralization Assay [nM]","IC50, Human IL-21R-TF1 Neutralization Assay [nM]",Binder
11,257,B3
3.7,54.4,B4
2.4,18.7,B5
3.1,57.5,B6
1.6,60.3,B7
9.4,~100,B8
3.7,33.1,B9
3.7,67.4,B10
3.3,30.3,B11
3.2,33.5,B12
4.5,35.3,B13

# Molecular target: T6, murine IL-21R extracellular domain His-Flag fusion protein (murine, UniProt Q9JHX3 20-237)
# T6 construct: Biotinylated in the ELISAs; also called mIL-21R-H/F; murine IL-21R-H/F
# Test: competition ELISA; competitor plate-bound 18A5 IgG
# Experimental: Blocked plates were washed 3× with PBS, and 50 μl/well of scFv/IL-21R mixtures were transferred to the appropriate plates and incubated for 1 hr at RT. Plates were washed 5× with PBS prior to the addition of a 1:6000 dilution of horseradish peroxidase-conjugated streptavidin (Southern Biotech, Birmingham, Ala.) secondary antibody to detect bound biotinylated mIL-21R-H/F. Plates were then incubated for 1 hr at RT and washed 7× with PBS. Signal was developed using 3,3′,5,5′-tetramethylbenzidine (TMB), the reaction stopped with H₂SO₄, and the absorbance read at 450 nm on an ENVISION™ plate reader (Perkin Elmer).
row,IC50 [nM],Binder
1,7,B3
2,8,B4
3,6,B5
4,5,B6
5,12,B7
6,28,B8
7,9,B9
8,6,B10
9,14,B11
10,6,B12
11,15,B13

# Molecular target: T4, cynomolgus monkey IL-21R expressed on …
# Test: cell-based ELISA on CHO cells transiently expressing cynomolgus monkey IL-21R; HRP anti-human IgG, A450
# Experimental: FIG. 6(a-l) depicts the binding of 21 anti-IL-21R IgGs to CHO cells transiently expressing human IL-21R (FIGS. 6a-c), rat IL-21R (FIGS. 6d-f), cynomolgus monkey IL-21R (FIGS. 6g-i), and human gamma common chain (FIGS. 6j-1). CHO cells were transiently transfected with IL-21R or the control gamma common chain, and binding was detected with HRP-conjugated anti-human IgG in a cell-based ELISA.
# as §1
row,EC50 (read off the curve) [nM],Binder
1,~3,B1
